The test concerns the target inter-alpha-inhibitor (IαI) (human) (UniProt P19827).

In article PMC4661386 one finds amount of HC·TSG-6 product with added calcium ions (SDS-PAGE band intensity) data, which are given here for 1 substance.

Chain of inter-alpha-inhibitor (IαI) (human) (P19827 whole entry, looked up): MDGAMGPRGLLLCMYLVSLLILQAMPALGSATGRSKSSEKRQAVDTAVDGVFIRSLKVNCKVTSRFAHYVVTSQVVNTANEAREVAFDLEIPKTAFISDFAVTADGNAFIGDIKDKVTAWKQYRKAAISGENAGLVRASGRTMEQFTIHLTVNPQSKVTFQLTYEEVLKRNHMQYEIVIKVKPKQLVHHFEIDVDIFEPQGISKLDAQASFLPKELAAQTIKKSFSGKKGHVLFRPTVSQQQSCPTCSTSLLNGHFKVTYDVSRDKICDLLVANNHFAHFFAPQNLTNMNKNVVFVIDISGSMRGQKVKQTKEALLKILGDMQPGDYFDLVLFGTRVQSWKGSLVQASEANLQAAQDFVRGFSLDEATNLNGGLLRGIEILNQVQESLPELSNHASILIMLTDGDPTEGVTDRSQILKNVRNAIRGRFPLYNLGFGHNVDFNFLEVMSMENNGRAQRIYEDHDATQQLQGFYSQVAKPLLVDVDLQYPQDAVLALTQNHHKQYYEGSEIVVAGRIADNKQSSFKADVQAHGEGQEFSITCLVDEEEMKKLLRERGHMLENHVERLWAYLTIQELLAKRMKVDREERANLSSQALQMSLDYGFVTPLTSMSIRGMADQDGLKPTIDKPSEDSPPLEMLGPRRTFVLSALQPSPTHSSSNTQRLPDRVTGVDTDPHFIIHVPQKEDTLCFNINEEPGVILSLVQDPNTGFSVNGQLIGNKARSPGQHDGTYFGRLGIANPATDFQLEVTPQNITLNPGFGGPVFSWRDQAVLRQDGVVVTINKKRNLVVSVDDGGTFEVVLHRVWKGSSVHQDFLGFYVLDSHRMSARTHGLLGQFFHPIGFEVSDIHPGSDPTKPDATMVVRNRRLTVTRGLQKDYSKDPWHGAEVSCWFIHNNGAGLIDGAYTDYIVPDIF

Take “Full-length human TSG-6 (rhTSG-6) E183S mutant (from UniProt P98066 18-277) (natural protein)”: the amount of HC·TSG-6 product with added calcium ions (SDS-PAGE band intensity) is 5 % of WT.
